Results: article PMC7227406, “Protein Phosphatases Type 2C Group A Interact with and Regulate the Stability of ACC Synthase 7 in Arabidopsis” (Cells, 2020)

T1: GST–ACS7 (Arabidopsis thaliana, UniProt Q9STR4 1-447)
T1 construct: ACS7, 1-aminocyclopropane-1-carboxylate synthase 7, Arabidopsis thaliana; Vector pDEST15; also called recombinant GST–ACS7; N-tagged GST–ACS7; source: E. coli BL21-CodonPlus (DE3)-RIL, purified (Glutathione-Sepharose 4B); not shown: GST, N-terminal, kept
T1 sequence (looked up): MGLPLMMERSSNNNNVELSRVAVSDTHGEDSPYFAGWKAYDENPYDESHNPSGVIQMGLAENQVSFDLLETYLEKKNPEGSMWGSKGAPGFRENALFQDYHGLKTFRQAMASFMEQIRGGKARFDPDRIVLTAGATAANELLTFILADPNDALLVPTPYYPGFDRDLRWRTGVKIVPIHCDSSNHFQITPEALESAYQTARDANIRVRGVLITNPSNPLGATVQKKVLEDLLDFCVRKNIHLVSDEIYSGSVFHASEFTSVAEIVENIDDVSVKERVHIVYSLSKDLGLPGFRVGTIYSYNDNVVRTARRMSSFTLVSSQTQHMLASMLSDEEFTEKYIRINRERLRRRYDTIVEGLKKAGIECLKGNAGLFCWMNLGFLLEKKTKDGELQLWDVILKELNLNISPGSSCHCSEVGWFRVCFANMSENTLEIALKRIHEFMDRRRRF


Molecular target: T1, GST–ACS7
Test: pull-down; GST–ACS7 pre-coupled to Glutathione-Sepharose 4B, preincubated with 1 mg/mL BSA; His-tagged ABI1 or ABI2 added in EBC buffer (100 mM NaCl, 0.5% Nonidet P-40, 100 mM NaF, 200 μM sodium orthovanadate, 50 mM Tris-HCl pH 8.0), 1 h, room temperature; washes with NENT buffer at 100/200/300 mM NaCl; immunoblot with anti-GST and anti-His
Conditions: both partners purified

binding result | Binder
binds | His–ABI2 (enzyme, Arabidopsis thaliana, UniProt O04719 1-423, looked up, ABI2, group A protein phosphatase type 2C, Arabidopsis thaliana; Vector pDEST17; also called His-tagged ABI2; source: E. coli BL21-CodonPlus (DE3)-RIL, purified (Ni-Sepharose 6 Fast Flow)) MDEVSPAVAVPFRPFTDPHAGLRGYCNGESRVTLPESSCSGDGAMKDSSFEINTRQDSLTSSSSAMAGVDISAGDEINGSDEFDPRSMNQSEKKVLSRTESRSLFEFKCVPLYGVTSICGRRPEMEDSVSTIPRFLQVSSSSLLDGRVTNGFNPHLSAHFFGVYDGHGGSQVANYCRERMHLALTEEIVKEKPEFCDGDTWQEKWKKALFNSFMRVDSEIETVAHAPETVGSTSVVAVVFPTHIFVANCGDSRAVLCRGKTPLALSVDHKPDRDDEAARIEAAGGKVIRWNGARVFGVLAMSRSIGDRYLKPSVIPDPEVTSVRRVKEDDCLILASDGLWDVMTNEEVCDLARKRILLWHKKNAMAGEALLPAEKRGEGKDPAAMSAAEYLSKMALQKGSKDNISVVVVDLKGIRKFKSKSLN
binds | His–ABI1 (enzyme, Arabidopsis thaliana, UniProt P49597 1-434, looked up, ABI1, group A protein phosphatase type 2C, Arabidopsis thaliana; Vector pDEST17; also called His-tagged ABI1; source: E. coli BL21-CodonPlus (DE3)-RIL, purified (Ni-Sepharose 6 Fast Flow)) MEEVSPAIAGPFRPFSETQMDFTGIRLGKGYCNNQYSNQDSENGDLMVSLPETSSCSVSGSHGSESRKVLISRINSPNLNMKESAAADIVVVDISAGDEINGSDITSEKKMISRTESRSLFEFKSVPLYGFTSICGRRPEMEDAVSTIPRFLQSSSGSMLDGRFDPQSAAHFFGVYDGHGGSQVANYCRERMHLALAEEIAKEKPMLCDGDTWLEKWKKALFNSFLRVDSEIESVAPETVGSTSVVAVVFPSHIFVANCGDSRAVLCRGKTALPLSVDHKPDREDEAARIEAAGGKVIQWNGARVFGVLAMSRSIGDRYLKPSIIPDPEVTAVKRVKEDDCLILASDGVWDVMTDEEACEMARKRILLWHKKNAVAGDASLLADERRKEGKDPAAMSAAEYLSKLAIQRGSKDNISVVVVDLKPRRKLKSKPLN
